Data published in doi:10.1101/2023.05.17.540984.
Where two headings read alike, the source gives them in different places.

T1: ELK1 (UniProt P19419 1-428)
T1 sequence: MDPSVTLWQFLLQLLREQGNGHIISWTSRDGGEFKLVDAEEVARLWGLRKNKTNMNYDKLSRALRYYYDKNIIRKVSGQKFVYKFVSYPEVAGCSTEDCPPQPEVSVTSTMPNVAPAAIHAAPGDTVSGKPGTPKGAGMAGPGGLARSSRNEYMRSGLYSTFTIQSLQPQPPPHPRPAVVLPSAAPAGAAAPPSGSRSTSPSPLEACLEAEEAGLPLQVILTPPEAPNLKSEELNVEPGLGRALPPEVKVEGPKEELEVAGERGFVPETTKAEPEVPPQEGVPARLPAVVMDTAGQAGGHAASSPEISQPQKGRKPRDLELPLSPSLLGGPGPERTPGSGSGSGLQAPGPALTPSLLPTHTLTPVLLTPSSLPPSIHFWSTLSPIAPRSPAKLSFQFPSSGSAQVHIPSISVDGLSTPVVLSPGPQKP


Key:
[1] = target: T1, ELK1; assay: EMSA
[2] = target: T1, ELK1; assay: EMSA; remark: listed apart in the source

Binder	binding result [1]	binding result [2]
rs8040749-G probe (centenarian allele) (dsDNA) DNA 1: CCTGCCTTCCGGAAGTTCATG DNA 2: CATGAACTTCCGGAAGGCAGG	binds	–
rs8040749-A probe (reference allele) (dsDNA) DNA 1: CCTGCCTTCCAGAAGTTCATG DNA 2: CATGAACTTCTGGAAGGCAGG	–	no binding
